Earlier results, collected in PMC3946517.

Legend:
[1] = target: quinol MADH (Paracoccus denitrificans) (UniProt P22619); experiment: stopped-flow kinetics
[2] = target: preMADH (Paracoccus denitrificans) (UniProt P22619); experiment: stopped-flow kinetics

## MauG (from UniProt Q51658)
[1]
  Kd: 11.2 µM
[2]
  Kd: < 1.5 µM
